Measured values from the DeepSol protein solubility set.

Assay: soluble on expression in E. coli; label from the status in PepcDB or PDB records

| Sequence | soluble on expression in E. coli |
| --- | --- |
| MGSDKIHHHHHHMTKPDMSKLASLSPFELKDELIKLASSDADRLMLNAGRGNPNFLATIPRHGFWQLGLFAMRESERSFSYMPEGVGGFPRREGIEERFDLFAREFAHVPGVSFLAGAVSYVRDQLGLNAGAFLYEMCEGILACNYPVPDRMLKLSEVIVGQYIRKEMIGNHPFIGEFDLFAVEGGTAAMTYLFNSIRENHLLKAGDTIALGMPIFTPYIEIPELNDYKLVELSVEADPGERWQYSNKELDKLRDPKVKAFFLVNPSNPPSVRMSDESLEYLASIIEERPDLIILTDDVYGTFADNFVSLFAMCPKNTILVYSFSKYFGATGWRLGVIATHRDNVFDEKIAALPDAARKELHERYTSITTEPDKLKFIDRLVADSRTVALNHTAGLSTPQQVQMVLFSLFSLMDTPDNYKIAMKRLIRNRKAALYREIGIAPEADDPNAVDYYTLLDIEALGGKALGPDFVKWVLASVEPNELLFRLAEDAGVVLLPGRGFGTRHPSGRVSLANLNESDYAKIGRSIRKLFEEYVEKYNEATGNKANKHVVKK | not soluble |
| MAQTKPIAEQMAALNNSDDTSFAADRSNSLLNATCPARIQNSVDQRKINRSFNDSLSSGYSGKWLRPKREALKITPLAQIDEAPATKRHSSAKDKHTEYKTRLCDAFRREGYCPYNDNCTYAHGQDELRVPRRRQEYYSRDPPRERRDSRSRRDDVDTTINRSSSSASKHHDENRRPSNNHGSSNRRQICHNFERGNCRYGPRCRFIHVEQMQHFNANATVYAPPSSDCPPPIAYYHHHPQHQQQFLPFPMPYFLAPPPQAQQGAPFPVQYIPQQHDLMNSQPMYAPMAPTYYYQPINSNGMPMMDVTIDPNATGGAFEVFPDGFFSQPPPTIIS | not soluble |
| MAHHHHHHMEEGDQATDAAETSALAANTLTREEQPDERSKNEVTLLEIKRKVQNEKEAQKDDNKQRKFKIINYTSKDSLVSKVEKEFFLFFCFLCGFNCLISETDVADLPRRKTDGSIIFPFKKIVHKKYYKTKKECILIRRREDALEVQFRILCKECGVPIGYVNSLADDNAYVYYYDYSFVRSQTKSRLFKDVSL | not soluble |
| SLKEVLDEKFPSNNKLEVGLGRDISGDPITVPLNEMPHLLVAGSTGSGKSVCINGIITSILLNAKPHEVKLMLIDPKMVELNVYNGIPHLLIPVVTNPHKAAQALEKIVAEMERRYDLFQHSSTRNIKGYNELIRKQNQELDEKQPELPYIVVIVDELADLMMVAGKEVENAIQRITQMARAAGIHLIVATQRPSV | not soluble |
| MEITKTDLFYNISEQQQAEMMHCFKTYTRTYKSGEVICFYDDNNIGVGIIESGSARVIHFLPNGTQTILEQLCRGDLFGQLFYHYACPESISLEATCDCVVRFIDYEHIIKRCSKACPHHSQLVNNILVIISDKTRSICEHLEVLSGRTIRDRLNNYFEILSSKSGSNTFKLPFTMTALADYLSVDRSAMSRELKKMKDEGLIQTNKGIVTINR | not soluble |
| MRCMTLPAYDIAILGAGPVGRVLALLLARLTPQPQRIALLQGGAGLPPTPAGTLGPAADPRVLALNHGSRVLLESLRAWPAHAAEIRHIHVSQRGRLGRTVIDREDFDVPQLGNVVAYAALHAQLEQAVQDCGVTVLSGPPARVDGQDGEGLTVRQGDAALHCRLAVQCDGAGGSDVRRDYAQHAVLTSAHATLPRSGWAWERFTNEGPLAMLPHPQTPEAYSVVWCCAPPRARRLAGLDDEAFSRELTEAFGTRLGRLRSAAPRHVFPLELKARHAQAHGRLATIGNAAQTLHPVAGQGLNLGLRDAAQLAHALPDWLAAPQADPSPLLATFARARLADRWVTAGLTDLMPRIFATGLAPVEHACGLALLGLDIAAPLRAPLARHLLQGLRVLEHHHHHH | soluble |
| HDAIFILDKQGRLTWINQSYSALSGNTLEDIEGKDLPSILQLDKIKHANIIILLQSLETGTSISFELTNHHKDGTLFWIDVSITPILEPN | not soluble |
| MADKIKVSLLGSTGMVGQKMVKMLAKHPYLELVKVSASPSKIGKKYKDAVKWIEQGDIPEEVQDLPIVSTNYEDHKDVDVVLSALPNELAESIELELVKNGKIVVSNASPFRMDPDVPLINPEINWEHLELLKFQKERKGWKGILVKNPNCTAAIMSMPIKPLIEIATKSKIIITTLQAVSGAGYNGISFMAIEGNIIPYIKGEEDKIAKELTKLNGKLENNQIIPANLDSTVTSIRVPTRVGHMGVINIVTNERINIEEIKKTLKNFKSLPQQKNLPTAPKQPIIVRDEEDRPQPIIDVNAESGMAVTVGRIRHENNVLRLVVLGDNLVRGAAGITILTVEVMKELGYI | soluble |
| MNTPLKRFFKIGYVIENFLHPYHNKKLLPLSRGVNIKGIFVLLNTLWRVFQDGSLQDLWSFT | not soluble |
| MGKKSKNSVTTQTQWKRLKIDFVERKIDKDDVFFEEVSDEQLNDKIIVPLFTSSGTFEETIGILIQWQEYLKSRSDRLSEVFLSKVNSYFEHIRITLALPFDESKWAELETLTETDLNKTPIFINNIRTSTVSVILHLENLIKSFHLNVKSAEIFPFDSDSFGLPPINCRKILNPLLWMKAGIEKLIQNNCQCDQPPIVPLITLLDLAPKEGHFQELAIASFFLENTAHKLDYSCSDDEKKFLDQIKMKFGTTKVDKLTMVLPDILMAYSEELVERVMPVSYFIPFELFRMMLLSWQPKVLNLRLRTEACSSIEDAARIEWDDEDVFTSTTLFNCPLFDRCEPVCLGDEEIILNCKLIVDCSGSRLFDPMFNEGNVYTAGRDFLVLFPMQTIILKRIVPLKVGSSVKVQLKKQIDYIVNTFFFNASEHQDRVVNYELTFTNSTDVQMSAVKRCIPQVANGRQIGVNLNVEQETRDLFTDHGNSCPGRHMFASFFDSENQVIVDLKVVLAN | not soluble |
| MPKIISKRKFNILRKTKEEIFSQIVYTKKRNGLHKAAKEYYFKDKDFTIIEDQQDRPDKPEELDTPDIPKPPKPPKGPDQPEEPGQPGGPDDPNSGNKKMPKPDEFVTHRQLQEFKKDLLVELHEIFPTKPELKRVEEKVDVLFELQKAQGEQIRIQGEQIKELKVEQKAQGETLQLILQTLQKMNDRLDKIEGKMDKMESRMDKMETRLDKLESKLEHHHHHH | not soluble |
| MAHHHHHHVDDDDKMAGDSAAYQRTSLYGDDVVIVAAHRTPLCKSKRGNFKDTYPDDLLAPVLRALIEKTNLNPSEVGDIVVGTVLAPGSQRASECRMAAFYAGFPETVAVRTVNRQCSSGLQAVADVAAAIKAGFYDIGIGAGLESMTTNPMAWEGSVNPAVKKFAQAQNCLLPMGVTSENVAQRFGVSRQEQDQAAVDSHRKAAAATAAGKFKDEIIPVKTKLVDPKTGDEKPITVSVDDGIRPTTTLASLGKLKPVFKKDGTTTAGNSSQVSDGAGAVLLMKRSVAMQKGLPVLGVFRTFAAVGVDPAIMGIGPAVAIPAAVKAAGLELDDIDLFEINEAFASQFVYCRNKLGLDPEKINVNGGAMAIGHPLGATGARCVATLLHEMKRRGKDCRFGVVSMCIGTGMGAAAVFERGDGVDELRNARKVEAQGLLSKDAR | soluble |
| MRGEKRTFEMLTNEVEYQHYRFSFANNPATAAGIFQLAEIELTVVADAPLVDFASNISRAEIGENVQFWDRSLANPTGWQWTFEDGEPATSTNRNPAVTFTSLGAKSVTLVASNDKGSNEKVQEQVVHIWDSQNPWAGYVKPTVTLVAHKPEHEGQIAFSRVMPDIEAVIHDISLQIVKVLYKDVAEAPLFKTVTFETDEYDFPAAKSGTDEDMILMMDVAHLANKAAEGDDALRDEVIGMLWHELTHGYNNSPNSGEYATGDEYHSYLESLANYMRIKAGFHESRRVGIKWVDNWNVDAYEQTSFFLEWVANSHRSVDFIYLFNKAAGDLKEWSFEAAFKSIFGEDKGVSIFWQEYHDAQGIEPPYPTPVDGYRNFAVDEGVSISTNATTVIIPDWDAYEGEDKLIDNNVTKKFNAFIEGTWWLEEHASHLFPINDITNVEVTFELPDAIVLHKYSVTTGNDNPQRDPTLWTISGSVDGEVWTQLDSDNYPSDPERLITFHYDIDDAVTAYKYYQFVFENTQPAGDSIGGDNGRLVQIGEIALLTEELEHHHHHH | not soluble |
| MGSDKIHHHHHHAADRPTQPVRTEVYRLERLDSVLLVDLAVDLTGVHLAPDCTVYLFPLLASENTGDSLSLPPIVLNGPQSDLMYRRRRALGTTSGLEKITPYTVLREGDHALPRIHYRTEVPYAAWMDDVKVWMRDTNCNCDARLVPFAMHTEHIPPLVVERVDTIVIHDTIRLASVASGQSTVASDIPLRKKVTRIQAGYEADIYFPTNEMRILPDHELNRASWMHFVNQVDSIEQDNRNSISGVTVTGYSSPEGYTSNNERLAEKRAKALQAFLENKYGERMEVAVEWVGEDWKQFEKDIEVSDLPERNEILSILRTVSDSNQRKSRLKALNKGKTFGILLREYFPKLRRVSCRIRYVK | not soluble |
| MFNKASFLTRLVASSVRVSEAAGGLIKNVMAGGDLKIIDKSEHGSGYDPQTEADRRAQYCIVQSLQKHFKNINIIGEEEDTTACPEIEMGFSADVLQMERLMSTELKNIQENDVVVWVDPLDGTSEVALAVKNKNMALLEQVTVLIGIAYKGRPVAGIIHQPYHEKLGRTVWAIQGCGVHGVVPATGNAQKIVVTTRSHLSESVSNALEALKTRNLADSVEKVGGAGFKVLKVLEGCAAYVFASAGCKKWDTCAVEAVLTAAGGTLTDISGRDIRYEPGVQLNNTGGVLATASWVKHKDYIDTIPQEIKNMLPEISSKK | not soluble |
| MGNNTIGARKSTTSKFWKCRSCIASRTTESRNNSIIQQRRNFIIRTKKEIPFPKRGASKDSCGSCHNQKNLIVCHLFLFKNHKKLFF | not soluble |
| MGSDKIHHHHHHMEEFEGEAIVEAENVVSIMLRREAAERADEILHFSYWSGEIKELDAPGYLDRWQKKCYHATCSLDEGEILLVVGPPGSGKTTFIAEAARKLSEEERVWVTSNTNIAVDNVLEKLERALRIGHPSKITAGVRRHSVEYNLLSGIRFSDYREYASKVAEAYREIARIQNDMIRKGKIVVGSTILKGMMSALKNYDFDTVIIDEASNTCISTALLALEKAEKAVVVGDPYQLPPVYEVGGHKAAKFSAYNFLINIYGKNLWLRRHYRSNAKIAEFAARHVYGFLEIDEKCRRIKIEPCKTTIPEVGDPEKPLVFIDCNGVERREGRSKVNEEEAEVVAMIAEELAECVGEENVGVITPYVKQAELIRGILSEFGVMVEVSTVHSYQGREKDVVIYSITATGNPYFASEKRLFNVALTRARKKFIAVGNSKALEGKNLLLTRFMVAAIKEGGFVRLR | not soluble |
| MGSDKIHHHHHHMAAVLLTGHGGPEKLVYRTDVKVPSPDPGEVLVEVSACGMNNTDVWVRQGAYGTEEDAAAVSTWRRQGNTLVFPRIQGTDTVGTIVSVGEGVSPERIGERVMVDFSIYNRDDDSLADIDYMGHGRDGGYAEYQTVPAENAHVVDTDMSDVELATFCCAYLTGEQMLERAGLKAGERVLVTGASGGVGSGIVQLARARGAIPYAVVGKGKEQAVLDIGAEAVITRGVADLPRAVAEVTGGQPIDVVADLVGGAIFNDLLRILRPEGRYTTAGAIAGPVVQLDLRTMYLKQLQLHGSSQGTRADFRRIVGYIEAKKIRPLVGGVYRLSDFHRAQADFVAKDFVGKLVVVPDAIAERQA | not soluble |
| MAIRVIGTGFGRTGTDSMREALTILGFGPCHHMSEVMGNEDQKRLWRALAKGAAPDWNQLFAGYASCIDWPSAHYWRDLIEFYPKARVILTYRSPESWWASFEKTILAGISQSTDQESLGLALISRQVFDGRPHDRANAIAVYEANVRAVIATVPPSRLLVHNLGDGWKPLCLHLDVPLEHHHHHH | not soluble |
| LTPILGYGRVRAKVSADIDFTSYEQTQELFNPELSALRSEQTMQESRNASNEASGVPGTLSNTPQPNSSLGQKNNPQQNATPNNLPQQTSSDQMQAKDVRMQTTKNFELDKTISHTKNQPGTIKRLSVAVLVDNRPVMNDKTKKLEKKPLTKEEIEQIKLLVSDAIGLNVKRGDSLNVINSSF | not soluble |
